Laboratory results taken from publication PMC5603367 (Journal of controlled release : official journal of the …, 2017).

T1: Recombinant human leptin receptor-Fc chimera (human, UniProt P48357 22-839)
T1 sequence (looked up): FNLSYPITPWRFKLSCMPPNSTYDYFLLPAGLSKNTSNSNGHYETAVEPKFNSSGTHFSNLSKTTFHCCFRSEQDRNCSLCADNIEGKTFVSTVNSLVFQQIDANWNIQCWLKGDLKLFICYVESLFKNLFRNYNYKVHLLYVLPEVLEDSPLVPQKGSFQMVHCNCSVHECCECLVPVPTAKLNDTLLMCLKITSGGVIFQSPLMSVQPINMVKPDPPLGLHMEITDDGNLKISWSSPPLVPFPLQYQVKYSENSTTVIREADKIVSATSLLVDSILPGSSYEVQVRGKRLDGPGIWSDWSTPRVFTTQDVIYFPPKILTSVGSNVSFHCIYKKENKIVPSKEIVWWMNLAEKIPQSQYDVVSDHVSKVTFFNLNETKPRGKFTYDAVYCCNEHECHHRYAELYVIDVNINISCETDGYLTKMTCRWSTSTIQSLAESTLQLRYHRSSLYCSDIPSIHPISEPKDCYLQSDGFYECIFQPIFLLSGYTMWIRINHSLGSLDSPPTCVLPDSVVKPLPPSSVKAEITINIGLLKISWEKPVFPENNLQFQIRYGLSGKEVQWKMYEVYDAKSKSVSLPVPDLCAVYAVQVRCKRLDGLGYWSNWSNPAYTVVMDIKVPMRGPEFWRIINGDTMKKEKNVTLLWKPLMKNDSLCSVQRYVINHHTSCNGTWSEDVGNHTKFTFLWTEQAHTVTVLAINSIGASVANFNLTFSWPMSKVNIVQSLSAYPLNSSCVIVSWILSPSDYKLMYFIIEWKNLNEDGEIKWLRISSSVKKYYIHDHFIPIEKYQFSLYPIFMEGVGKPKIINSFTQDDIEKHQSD


What was measured:
[1] = target: leptin receptor (Mus musculus) (UniProt P48356); experiment: SPR; details: cited from earlier work
Chain of leptin receptor (Mus musculus) (P48356 22-839): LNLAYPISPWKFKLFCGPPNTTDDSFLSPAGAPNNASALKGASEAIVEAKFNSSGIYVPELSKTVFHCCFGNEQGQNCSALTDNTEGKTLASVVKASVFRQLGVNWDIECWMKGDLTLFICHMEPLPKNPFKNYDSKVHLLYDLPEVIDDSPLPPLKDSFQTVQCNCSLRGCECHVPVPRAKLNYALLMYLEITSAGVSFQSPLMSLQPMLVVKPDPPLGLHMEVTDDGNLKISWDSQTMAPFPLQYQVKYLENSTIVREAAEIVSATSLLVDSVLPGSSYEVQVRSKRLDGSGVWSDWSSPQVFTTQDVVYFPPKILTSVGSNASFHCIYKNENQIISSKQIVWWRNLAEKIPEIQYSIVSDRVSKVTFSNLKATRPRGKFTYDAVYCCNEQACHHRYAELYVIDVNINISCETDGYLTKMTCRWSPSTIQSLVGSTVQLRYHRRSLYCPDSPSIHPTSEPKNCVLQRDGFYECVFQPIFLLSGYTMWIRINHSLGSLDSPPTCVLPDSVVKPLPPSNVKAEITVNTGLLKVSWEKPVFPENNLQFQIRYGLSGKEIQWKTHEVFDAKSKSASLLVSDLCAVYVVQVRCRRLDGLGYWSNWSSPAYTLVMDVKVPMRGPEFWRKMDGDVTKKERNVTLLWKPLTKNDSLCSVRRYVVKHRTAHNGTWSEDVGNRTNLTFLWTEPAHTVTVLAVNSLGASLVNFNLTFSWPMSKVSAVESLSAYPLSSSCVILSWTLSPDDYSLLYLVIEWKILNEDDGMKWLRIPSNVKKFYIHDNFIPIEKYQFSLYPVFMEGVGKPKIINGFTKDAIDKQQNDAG

[2] = target: T1, Recombinant human leptin receptor-Fc …; experiment: SPR

Molecule | Kd [2] | Kd [1]
leptin (from UniProt P41160) |  | 120 pM
Leptin N-terminal conjugate with poly(ethylene glycol) (LepNPEG5K), 1:1 conjugate (ligand, mouse, UniProt P41160 22-167, looked up, one chain of PEG (average molecular mass 5000 Da) on the N-terminal amine (reductive amination)) VPIQKVQDDTKTLIKTIVTRINDISHTQSVSAKQRVTGLDFIPGLHPILSLSKMDQTLAVYQQVLTSLPSQNVLQIANDLENLRDLLHLLAFSKSCSLPQTSGLQKPESLDGVLEASLYSTEVVALSRLQGSLQDILQQLDVSPEC | 280 pM | 

Further molecules by falling Kd [2], results first:

Kd [2] | Molecule | Kd [1]
200 pM | Leptin N-terminal conjugate with Pluronic P85 (LepNP85), 1:1 conjugate (ligand, mouse, UniProt P41160 22-167, looked up, one chain of Pluronic P85 on the N-terminal amine (reductive amination, secondary amine)) VPIQKVQDDTKTLIKTIVTRINDISHTQSVSAKQRVTGLDFIPGLHPILSLSKMDQTLAVYQQVLTSLPSQNVLQIANDLENLRDLLHLLAFSKSCSLPQTSGLQKPESLDGVLEASLYSTEVVALSRLQGSLQDILQQLDVSPEC | 
89 pM | Recombinant mouse leptin (ligand, UniProt P41160 22-167, looked up) VPIQKVQDDTKTLIKTIVTRINDISHTQSVSAKQRVTGLDFIPGLHPILSLSKMDQTLAVYQQVLTSLPSQNVLQIANDLENLRDLLHLLAFSKSCSLPQTSGLQKPESLDGVLEASLYSTEVVALSRLQGSLQDILQQLDVSPEC | 
